The target of one data set is T1, APUM23Delete (Arabidopsis thaliana, UniProt Q9C552 85-655, del235-270).
T1 sequence: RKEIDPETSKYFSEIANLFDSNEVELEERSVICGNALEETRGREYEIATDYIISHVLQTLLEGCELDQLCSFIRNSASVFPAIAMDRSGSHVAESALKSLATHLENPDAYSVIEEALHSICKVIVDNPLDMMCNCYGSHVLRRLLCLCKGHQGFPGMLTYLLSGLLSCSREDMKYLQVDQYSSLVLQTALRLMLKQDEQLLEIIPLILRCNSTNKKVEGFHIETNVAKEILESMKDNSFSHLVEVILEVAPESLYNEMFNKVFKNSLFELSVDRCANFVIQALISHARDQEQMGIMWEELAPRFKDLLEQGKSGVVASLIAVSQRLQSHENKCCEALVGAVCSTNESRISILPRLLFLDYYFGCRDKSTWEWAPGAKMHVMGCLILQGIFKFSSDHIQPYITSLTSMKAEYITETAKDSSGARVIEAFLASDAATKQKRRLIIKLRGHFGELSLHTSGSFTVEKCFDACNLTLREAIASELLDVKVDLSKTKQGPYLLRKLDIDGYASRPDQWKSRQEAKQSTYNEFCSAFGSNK
As to the kind of experiment: X-ray crystallography.

The target in the next data set is T2, APUM23 85-655 (WT) (Arabidopsis thaliana, UniProt Q9C552 85-655).
T2 sequence: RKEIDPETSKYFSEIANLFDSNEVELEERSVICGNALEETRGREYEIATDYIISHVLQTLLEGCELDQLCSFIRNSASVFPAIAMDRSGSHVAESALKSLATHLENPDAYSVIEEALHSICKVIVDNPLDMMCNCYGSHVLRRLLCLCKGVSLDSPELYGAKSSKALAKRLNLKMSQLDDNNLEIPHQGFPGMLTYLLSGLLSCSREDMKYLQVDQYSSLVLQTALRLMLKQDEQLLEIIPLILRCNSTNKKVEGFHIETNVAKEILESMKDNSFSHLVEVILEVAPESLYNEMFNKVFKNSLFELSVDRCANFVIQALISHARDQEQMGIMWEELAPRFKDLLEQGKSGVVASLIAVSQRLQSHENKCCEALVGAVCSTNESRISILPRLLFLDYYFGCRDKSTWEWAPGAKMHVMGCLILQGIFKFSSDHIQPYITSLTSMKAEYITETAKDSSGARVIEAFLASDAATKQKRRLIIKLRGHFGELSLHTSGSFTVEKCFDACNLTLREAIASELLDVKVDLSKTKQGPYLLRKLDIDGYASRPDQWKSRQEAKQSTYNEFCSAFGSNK
In words: X-ray crystallography.

B1: 11-mer WT RNA (18S rRNA 1141-1151) (ssRNA)
RNA: GGAAUUGACGG
With B1, the binding result with APUM23Delete is given as “binds”.

B2: 11-mer A+3G RNA (ssRNA)
RNA: GGAGUUGACGG
Consider B2, for which, in the data set with APUM23 85-655 (WT), the binding result was “binds”.

These data come from article PMC5714250.
